Three molecules from patent publication US20120316071A1 (published 2012) can be followed below.

Assay [1] has as its target T1, rHuman CD44/Fc Chimera, CF (R&D Systems Cat#3660-CD) (human, UniProt P16070 21-220).
T1 construct: Bought reagent
As to the kind of experiment: MSD multispot ECL, antigen spotted, Fab 37.2 nM; blank spot 199.

Assay [2] concerns the target T2, rHuman Notch-1/Fc Chimera, CF (R&D Systems Cat#3647-TK) (human, UniProt P46531 19-526).
T2 construct: Bought reagent
The description is as above.

Assay [3] addresses T3, rHuman Erythropoietin R/Fc Chimera, CF (R&D Systems Cat#963-ER) (human, UniProt P19235 25-250).
T3 construct: Bought reagent; also called EPO R/Fc; Epo R
T3 sequence (looked up): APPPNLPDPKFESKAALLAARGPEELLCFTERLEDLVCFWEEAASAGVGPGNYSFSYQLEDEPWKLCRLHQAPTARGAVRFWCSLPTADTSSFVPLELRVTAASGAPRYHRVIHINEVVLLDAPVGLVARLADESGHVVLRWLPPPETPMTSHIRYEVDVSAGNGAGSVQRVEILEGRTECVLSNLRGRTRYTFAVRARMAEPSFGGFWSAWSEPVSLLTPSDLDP
The assay is described as above.

For assay [4], the target named is T4, rHuman IGF-1 sR, (IGF-1 sR), CF (R&D Systems Cat#391-GR) (human, UniProt P08069 31-932).
T4 construct: Bought soluble receptor; also called insulin-like growth factor-1 soluble receptor
Described as above.

In assay [5] the target is T5, Recombinant Human DLL4 (R&D Systems Cat#1506-D4/CF) (human, UniProt Q9NR61 27-524).
T5 construct: Bought recombinant protein; also called rHuman DLL4; delta-like protein 4
The assay is described as above.

The target of assay [6] is T6, rHuman ErbB2/Fc Chimera, CF (R&D Systems Cat#1129-ER) (human, UniProt P04626 23-652).
T6 construct: Bought reagent; also called human epidermal growth factor 2 receptor
The description is as above.

Assay [7] deals with T7, rHuman EGF R/Fc Chimera, CF (R&D Systems Cat#344-ER) (human, UniProt P00533 25-645).
T7 construct: Bought reagent; also called epidermal growth factor receptor
Described as above.

In assay [8] the target is T8, rHuman HGF R/c-MET/Fc Chimera, CF (R&D Systems Cat#358-MT/CF) (human, UniProt P08581 25-932).
T8 construct: Bought reagent; also called HGF R/Fc; hepatocyte growth factor receptor
T8 sequence (P08581 25-932, change not shown): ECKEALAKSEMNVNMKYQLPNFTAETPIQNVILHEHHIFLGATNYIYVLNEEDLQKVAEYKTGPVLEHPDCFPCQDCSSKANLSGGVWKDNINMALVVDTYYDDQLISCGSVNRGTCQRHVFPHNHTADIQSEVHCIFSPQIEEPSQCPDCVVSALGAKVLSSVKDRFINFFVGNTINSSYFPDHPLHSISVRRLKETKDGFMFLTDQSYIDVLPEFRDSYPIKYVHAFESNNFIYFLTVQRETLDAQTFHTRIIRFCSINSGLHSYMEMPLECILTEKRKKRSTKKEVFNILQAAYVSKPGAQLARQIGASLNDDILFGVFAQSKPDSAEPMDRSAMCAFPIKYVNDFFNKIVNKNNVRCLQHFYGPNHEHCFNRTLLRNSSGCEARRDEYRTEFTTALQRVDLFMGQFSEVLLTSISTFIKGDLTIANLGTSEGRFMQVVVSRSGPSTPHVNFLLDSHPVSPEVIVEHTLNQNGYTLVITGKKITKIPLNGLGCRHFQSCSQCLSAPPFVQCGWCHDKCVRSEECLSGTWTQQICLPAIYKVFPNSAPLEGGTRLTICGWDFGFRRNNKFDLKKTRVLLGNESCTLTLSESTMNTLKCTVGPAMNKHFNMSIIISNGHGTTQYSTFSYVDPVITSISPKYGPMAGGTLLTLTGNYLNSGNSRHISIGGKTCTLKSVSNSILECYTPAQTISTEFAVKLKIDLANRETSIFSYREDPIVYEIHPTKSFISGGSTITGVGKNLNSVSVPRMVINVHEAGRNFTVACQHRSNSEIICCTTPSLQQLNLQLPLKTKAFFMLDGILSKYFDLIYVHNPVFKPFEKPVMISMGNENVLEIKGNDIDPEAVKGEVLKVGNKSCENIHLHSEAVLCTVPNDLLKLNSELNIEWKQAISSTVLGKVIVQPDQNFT
The description is as above.

The target in assay [9] is T1, rHuman CD44/Fc Chimera, CF (R&D Systems …). As to the kind of experiment: MSD multispot ECL, antigen spotted, Fab 0.6 nM; blank spot 226.
Assay [10] has as its target T5, Recombinant Human DLL4 (R&D Systems …). Described as above.
Assay [11] has as its target T7, rHuman EGF R/Fc Chimera, CF (R&D …). The description is as above.
The target in assay [12] is T9, rHuman Erythropoietin R/Fc Chimera, CF (R&D Systems Cat#963-ER) (human, UniProt P19235 25-250).
T9 construct: Bought recombinant protein; also called EPO R/Fc; Epo R; Fc part of the bought chimera not given
T9 sequence (looked up): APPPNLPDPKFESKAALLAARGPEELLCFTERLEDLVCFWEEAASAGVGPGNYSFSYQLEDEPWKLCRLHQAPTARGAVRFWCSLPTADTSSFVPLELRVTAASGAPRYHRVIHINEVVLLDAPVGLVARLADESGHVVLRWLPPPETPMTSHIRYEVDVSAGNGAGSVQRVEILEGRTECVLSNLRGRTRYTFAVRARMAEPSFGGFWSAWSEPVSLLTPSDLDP
As to the kind of experiment: Multispot ECL (MSD), antigen spotted on plate, Fab 31.3 nM; blank spot 250.

Assay [13] has as its target T10, Recombinant Human DLL4 (R&D Systems Cat#1506-D4/CF) (human, UniProt Q9NR61 27-524).
T10 construct: Bought recombinant protein; also called rHuman DLL4; delta-like protein 4
The assay is described as above.

In assay [14] the target is T11, rHuman Notch-1/Fc Chimera, CF (R&D Systems Cat#3647-TK) (human, UniProt P46531 19-526).
T11 construct: Bought recombinant protein; Fc part of the bought chimera not given
Described as above.

Assay [15] addresses T12, rHuman IGF-1 sR, CF (R&D Systems Cat#391-GR) (human, UniProt P08069 31-932).
T12 construct: Bought recombinant soluble receptor; also called insulin-like growth factor-1 soluble receptor
The assay is described as above.

In assay [16] the target is T9, rHuman Erythropoietin R/Fc Chimera, CF …. As to the kind of experiment: Multispot ECL (MSD), antigen spotted on plate, Fab 500 nM; blank spot 680.
Assay [17] deals with T10, Recombinant Human DLL4 (R&D Systems …). The assay is described as above.
Assay [18] has as its target T11, rHuman Notch-1/Fc Chimera, CF (R&D …). The description is as above.
Assay [19] has as its target T12, rHuman IGF-1 sR, CF (R&D Systems …). The assay is described as above.
For assay [20], the target named is T13, rHuman Notch-1/Fc Chimera, CF (R&D Systems Cat#3647-TK) (human, UniProt P46531 19-526).
T13 construct: Bought from R&D Systems; not shown: Fc of the bought chimera
As to the kind of experiment: MSD multispot ECL, antigen spotted on plate, Fab 88.1 nM; blank spot 301.

B1: Fab VH1-46_IGHD6-6*01_IGHJ1*01 & L6_IGKJ1*01 (Fab, V domains shown)
VH: QVQLVQSGAEVKKPGASVKVSCKASGYTFTSYYMHWVRQAPGQGLEWMGIINPSGGSTSYAQKFQGRVTMTRDTSTSTVYMELSSLRSEDTAVYYCAREEYSSSSAEYFQHWGQGTLVTVSS
VL: not shown
notes: Only variable domains are tied to the molecule; Tested as a Fab made in E. coli: heavy chain from Plasmid A (CH1 constant region, His6 and Flag tags), kappa light chain from Plasmid C (kappa CL); also called parent Hit Fab against DLL4; VH1-46_IGHD6-6*01_IGHJ1*01 & L6_IGKJ1*01 (parental)
As to B1, the ECL signal stood at 356 ECL signal in [1]; 402 ECL signal in assay [2]; 315 ECL signal in [3]; 295 ECL signal in assay [4]; 16700 ECL signal in assay [5]; 384 ECL signal in assay [6]. In addition, the ECL signal in [7] was 228 ECL signal; in assay [8], 207 ECL signal; in [9], 238 ECL signal; in [10] it was 508 ECL signal; in assay [11] it was 309 ECL signal.

B2: Fab VH1-46_IGHD6-13*01_IGHJ4*01 & B3_IGKJ1*01 (Fab, V domains shown)
VH: QVQLVQSGAEVKKPGASVKVSCKASGYTFTSYYMHWVRQAPGQGLEWMGIINPSGGSTSYAQKFQGRVTMTRDTSTSTVYMELSSLRSEDTAVYYCAREGYSSSWYDYFDYWGQGTLVTVSS
VL: not shown
notes: Germline Fab made in E. coli; VH was cloned into Plasmid A (CH1, His6 and Flag tags) and the kappa VL into Plasmid C (kappa CL)
On to B2, for which the ECL signal stood at 7880 in assay [12]; 528 in assay [13]; 563 in [14]; 385 in assay [15]; 10300 in assay [16]; 2320 in assay [17]. Moreover, the results for the ECL signal in assay [18] and in assay [19] were 1980 and 1330, respectively.

B3: Fab VH1-46_IGHD3-10*01_IGHJ4*01 & B3_IGKJ1*01 (Fab, V domains shown)
VH: QVQLVQSGAEVKKPGASVKVSCKASGYTFTSYYMHWVRQAPGQGLEWMGIINPSGGSTSYAQKFQGRVTMTRDTSTSTVYMELSSLRSEDTAVYYCAREYYYGSGSYYNDYFDYWGQGTLVTVSS
VL: not shown
notes: Tested as a Fab made in E. coli; VH was cloned into Plasmid A (CH1 constant region, His6 and Flag tags); The kappa VL was cloned into Plasmid C (kappa CL)
As for B3, the ECL signal in assay [20] worked out at 440.
